Results taken from PMC9372576, “Interaction of the gas vesicle proteins GvpA, GvpC, GvpN, and GvpO of Halobacterium salinarum” (Frontiers in Microbiology, 2022).

B8: GvpC fused to NGFP or CGFP (natural protein, Halobacterium salinarum, UniProt P24574 1-382, looked up)
chain: MSVTDKRDEMSTARDKFAESQQEFESYADEFAADITAKQDDVSDLVDAITDFQAEMTNTTDAFHTYGDEFAAEVDHLRADIDAQRDVIREMQDAFEAYADIFATDIADKQDIGNLLAAIEALRTEMNSTHGAFEAYADDFAADVAALRDISDLVAAIDDFQEEFIAVQDAFDNYAGDFDAEIDQLHAAIADQHDSFDATADAFAEYRDEFYRIEVEALLEAINDFQQDIGDFRAEFETTEDAFVAFARDFYGHEITAEEGAAEAEAEPVEADADVEAEAEVSPDEAGGESAGTEEEETEPAEVETAAPEVEGSPADTADEAEDTEAEEETEEEAPEDMVQCRVCGEYYQAITEPHLQTHDMTIQEYRDEYGEDVPLRPDDKT
notes: GvpC of the p-vac region of Halobacterium salinarum; gvpC amplified from the p-vac region; GFP fragment at the N- or C-terminus, 14 or 16 aa linker; source: Hfx. volcanii WR340 transformant, split-GFP fusion in living cells
B9: GvpN fused to NGFP or CGFP (natural protein, Halobacterium salinarum, UniProt Q9HI16 1-347, looked up)
chain: MTNESRKRKVRGSQIRSSRGDKKQGRSQSRDDKEIERLERQNDARGQESSTHVDEGFVPEEQSFIETESVNRVESRMERWLDVGRPVHLIGPTGCGKTSLAMHVARERDRPVVWINGDAELTTSDLVGEYAEKERISEHDQFIHNVVKSKDIIRDRWVDNPLTLAVQEGATLVYNEFSRTKPVANNVLLSVFEEGVLELPGKRGKSRYVDVHPEFRTILTSNSVEYAGVHEPQDALLDRLIGIYMDFYDLDTEIEIVRAHVDKSADTNVEDIVRVLRELRERLDITVGTRAAIMANEGATTVDTVDQAVLTDICTDVLASKVAQRSDVRGLREEIESAIDDMEVALS
notes: GvpN of the p-vac region of Halobacterium salinarum; gvpN amplified from the p-vac region; GFP fragment at the N- or C-terminus, 14 or 16 aa linker; source: Hfx. volcanii WR340 transformant, split-GFP fusion in living cells

Experiments:
Assay in all cases: split reporter (BiFC, NanoBiT); split-GFP (NGFP and CGFP of salt-stable mGFP2) in Hfx. volcanii transformants, 24 h 37 °C then 24 h 30 °C; relative fluorescence (rf) against the wild type; the highest of eight tag combinations is given
[1] = biological target: T1, GvpC C-terminal fragment Cterm (Halobacterium salinarum, UniProt P24574 329-382); settings: partners not purified
T1 construct: GvpC of Halobacterium salinarum, aa 329-382, the globular C-terminal domain with a zinc-finger motif; GFP fragment at the N- or C-terminus; source: Hfx. volcanii WR340 transformant, split-GFP fusion in living cells
T1 sequence (looked up): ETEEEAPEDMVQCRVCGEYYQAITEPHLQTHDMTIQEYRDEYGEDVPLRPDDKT

[2] = biological target: B9; settings: partners not purified
[3] = biological target: B8; settings: partners not purified
[4] = biological target: the molecule itself

B1: GvpL fused to NGFP or CGFP (natural protein, Halobacterium salinarum, UniProt Q9HI27 1-281, looked up)
chain: MTDHRPSPEEEQTTANEERTVSNGRYLYCVVDTTSSESATLSTTGVDDNPVYVVEADGVGAVVHDCETVYETEDLEQVKRWLVTHQQVVDAASDAFGTPLPMRFDTVLEGGDASIERWLEDHYEGFRDELASFAGVWEYRINLLWDSAPFEETIADRDDRLRELRQRQQQSGAGKKFLLEKQSDQRLQELKRERRTELADQLKEAITPVVNDLTEQDTNTPLQDEHSSIEKEQIVRFAVLADEDDETALGDRLDTIVEHEGVEIRFTGPWPPYTFAPDIGK
notes: accessory gas vesicle protein GvpL of Halobacterium salinarum; construct of earlier work; source: Hfx. volcanii WR340 transformant, split-GFP fusion in living cells
relative fluorescence (rf) [1]: > 18 LAU/mm^2 | relative fluorescence (rf) [2]: 16.9 LAU/mm^2 | relative fluorescence (rf) [3]: 28.6 LAU/mm^2

B2: GvpG fused to NGFP or CGFP (natural protein, Halobacterium salinarum, UniProt P24371 1-83, looked up)
chain: MFIIDDLFVSPFFSLLDILQTMALDEMYDTKSIRDDIKENQLLYEVGERSDEEYQQRKQALESQLEMAEQVQEQMRDRMEVKK
notes: accessory gas vesicle protein GvpG of Halobacterium salinarum; construct of earlier work; source: Hfx. volcanii WR340 transformant, split-GFP fusion in living cells
relative fluorescence (rf) [2]: < 5 LAU/mm^2

B3: GvpH fused to NGFP or CGFP (natural protein, Halobacterium salinarum, UniProt P24372 1-182, looked up)
chain: MVPDENDDASDDQSSQLSGLLDQLHTLVEVLADIEEEGGHRHESGRIDRGNARIDYDYDVSIGLGRADGSSYDEEPSSNRSRSEQRSGQQRTTEDSIHVETRGGTSGDELVVVADLPGVTDDDVDVALDTDEQALTLRVDDDVVERVVLDRPDVAITDMTLRNQVLEIRLARTSDTDGGEST
notes: accessory gas vesicle protein GvpH of Halobacterium salinarum; construct of earlier work; source: Hfx. volcanii WR340 transformant, split-GFP fusion in living cells
relative fluorescence (rf) [1]: 42.6 LAU/mm^2 | relative fluorescence (rf) [2]: < 5 LAU/mm^2 | relative fluorescence (rf) [3]: > 7.5 LAU/mm^2

B4: GvpI fused to NGFP or CGFP (natural protein, Halobacterium salinarum, UniProt Q9HI24 1-144, looked up)
chain: MSDKQQQKHKQKARQARVKAQINRDKARRNLLRQREKLARRRTRNRKQSEPRRDDSDGDDTDGETVKNPAAHSTMPPQKSNAENAVRNSHSTVPKTPKYSDVTARERLYGQRLHQKTAGGNSEASAPSDESASGSPTEDEVNDE
notes: accessory gas vesicle protein GvpI of Halobacterium salinarum; construct of earlier work; source: Hfx. volcanii WR340 transformant, split-GFP fusion in living cells
relative fluorescence (rf) [1]: > 18 LAU/mm^2 | relative fluorescence (rf) [2]: < 5 LAU/mm^2 | relative fluorescence (rf) [3]: > 7.5 LAU/mm^2

B5: GvpJ fused to NGFP or CGFP (natural protein, Halobacterium salinarum, UniProt P24374 1-114, looked up)
chain: MSDPKPTRSQGDLAEMLEMLLDKGVVVNADIAVSVGDTELLGIELRAAIASFETAAEYGLEFPTGTDMERVESAANISPDQSDPASETQSETESTNPLSDDSTPTASTSAEETK
notes: accessory gas vesicle protein GvpJ of Halobacterium salinarum; construct of earlier work; source: Hfx. volcanii WR340 transformant, split-GFP fusion in living cells
relative fluorescence (rf) [2]: < 5 LAU/mm^2

B6: GvpK fused to NGFP or CGFP (natural protein)
chain: not shown
notes: accessory gas vesicle protein GvpK of Halobacterium salinarum; construct of earlier work; source: Hfx. volcanii WR340 transformant, split-GFP fusion in living cells
relative fluorescence (rf) [2]: < 5 LAU/mm^2

B7: GvpM fused to NGFP or CGFP (natural protein, Halobacterium salinarum, UniProt P24377 1-84, looked up)
chain: MEPTKDETHAIVEFVDVLLRDGAVIQADVIVTVADIPLIGISLRAAIAGMTTMTEYGLFEEWDAAHRQQSEAFTTSPTADRRED
notes: accessory gas vesicle protein GvpM of Halobacterium salinarum; construct of earlier work; source: Hfx. volcanii WR340 transformant, split-GFP fusion in living cells
relative fluorescence (rf) [2]: < 5 LAU/mm^2

B8
relative fluorescence (rf) [4]: 14.5 LAU/mm^2

B9
relative fluorescence (rf) [4]: > 10 LAU/mm^2
